The chains are these.
B1: Hairpin Ribozyme (parent)
chain: GUCCUCUUUCACGUGCGCGUGAAAGAGAGAAGUGAACCAGAGAAACACACGUUGUGGUAUAUUACCUGGUA

In this data set the parent is B1. Nature of the data set: self-cleavage, relative activity (ratio to wild type); higher = more cleavage; co-transcriptional.
As for A61C G68C, the self-cleavage came to 0.153. Consider U58C A61U, for which the self-cleavage was determined as 0.38.

In the case of A59C U62C, the self-cleavage was determined as 0.0999. Under A59C U62G stands 0.123. The result for U62C U67C reads 0.121; that for U62C U67G, 0.265.

For U62A U70C, the self-cleavage is 0.219.

In the case of A64G G69C, the self-cleavage was found to be 0.142. The result for A64G G69A reads 0.121; that for U63A U70G, 0.151. For U63C C66U, the self-cleavage was 0.165. Under U63C C66G stands 0.244; under U58C G69U, 0.302; under U60A G69U, 0.129. The result for U60A G69A reads 0.183; that for U60A G69C, 0.336. On to G57U G68C, for which the self-cleavage amounted to 0.211. Regarding G57U G68A, the self-cleavage was 0.188.

For the variant A59G G69U, the self-cleavage came out at 0.15.

As to A59G G69A, the self-cleavage is 0.125. The result for C66U U67G reads 0.0789. As to U63G U70A, the self-cleavage worked out at 0.0931. With U62A A64C, the self-cleavage turned out to be 0.164.

Consider G57C U63G, for which the self-cleavage was 0.18.

For the variant C65G G69C, the self-cleavage is 0.219. Under C65G G69U stands 0.156; under U60G G69U, 0.101; under C65A U67C, 0.228.

With C65A U67A, the self-cleavage came out at 0.141. The result for C66A U67A reads 0.234; that for U63A G69U, 0.17; that for G57A C66U, 0.2. On to G57A C66G, for which the self-cleavage was 0.103. For the variant C66G G68A, the self-cleavage came out at 0.123. Under U63G C65A stands 0.0995; under U63G C65G, 0.243. Under A59C U63G stands 0.164. Under A59C U63C stands 0.199; under U62C G69U, 0.169; under A61U A71G, 0.275. Consider A61U A71C, for which the self-cleavage was determined as 0.468. Under G57A U58G stands 0.123; under G57A U58C, 0.21. With G57A U58A, the self-cleavage worked out at 0.169. Under A64C A71U stands 0.243; under U63C A64G, 0.0805; under G56U U63A, 0.157. Under A61C A64U stands 0.179; under A61C A64G, 0.185.

With U62A C66G, the self-cleavage worked out at 0.188. With C66A U70A, the self-cleavage turned out to be 0.279. Under U62A U63A stands 0.12; under U62A U63C, 0.113; under U62A U63G, 0.112. Take C66U G68C: the self-cleavage is 0.202. For the variant C65A A71G, the self-cleavage amounted to 0.93. The result for C65A A71U reads 0.7; that for U58A A64U, 0.237. For the variant U58A A64C, the self-cleavage stood at 0.143.

As for G57C U60C, the self-cleavage was 0.156. Under U58C A64U stands 0.0829. The result for U63C A71C reads 0.578; that for U63C U70C, 0.19. Turning to U62A U67A, the self-cleavage is 0.134. Under U62A U67C stands 0.134. The result for A61C U67G reads 0.24; that for G56U U62C, 0.122; that for G56U U62A, 0.186. Under U58C U60G stands 0.742; under U63A A64C, 0.0838.

As to U63G A71G, the self-cleavage turned out to be 0.226. The result for U63G A71C reads 0.565; that for C65A U70G, 0.562; that for C65A U70C, 0.692. With G56C U70C, the self-cleavage is 0.134.

G56U G68U: the self-cleavage was determined as 0.276. Under G57C U58G stands 0.277.

As to C66G A71U, the self-cleavage was found to be 0.168. With C66G A71G, the self-cleavage was 0.16. The result for C66G A71C reads 0.35.

Take U58A U62C: the self-cleavage was found to be 0.12. Under A61C U63G stands 0.12; under A61C U63C, 0.284; under A59C G69U, 0.131. Turning to A59C G69A, the self-cleavage is 0.19.

With U58G A59C, the self-cleavage worked out at 0.149. The result for U58G A59U reads 0.242; that for U63C C65G, 0.117. Under G56U A71U stands 0.177.

Turning to G56U A71C, the self-cleavage is 0.454.

Consider C66U, for which the self-cleavage stood at 0.527.

C66A: the self-cleavage is 0.218. Under C66G stands 0.181.

Turning to G57A A64U, the self-cleavage is 0.119. The result for U58C C65G reads 0.255; that for U58C C65A, 1.11; that for U63C G68U, 0.351. The result for U60A U63C reads 0.151; that for U60A U63A, 0.164; that for A59U U63G, 0.218.

With A59U U63A, the self-cleavage is 0.206. As for A64G C65G, the self-cleavage was determined as 0.101. On to A64G C65U, for which the self-cleavage came to 0.215. As for A64G C65A, the self-cleavage came to 0.139. Take U58C A59C: the self-cleavage was found to be 0.304.

For the variant U58C A59G, the self-cleavage is 0.272.

As for U58G A61C, the self-cleavage is 0.32. Take U58G A61G: the self-cleavage stood at 0.111.

Consider A59G U70A, for which the self-cleavage was 0.163.

On to A59G A61C, for which the self-cleavage is 0.39. As for U58A G69U, the self-cleavage was found to be 0.175. On to U62G C66A, for which the self-cleavage worked out at 0.207. As to C65G U70A, the self-cleavage was 0.197. Consider A64G C66A, for which the self-cleavage came out at 0.211. As to A64G C66U, the self-cleavage amounted to 0.109. Take U63G U67G: the self-cleavage turned out to be 0.134. The result for U60C C65A reads 1.34. Under A59C A61G stands 0.207; under A59C A61C, 0.0887. Under A61G C65U stands 0.192. Consider A61G G68A, for which the self-cleavage worked out at 0.275. The result for A61G G68U reads 0.163; that for G57A A71C, 0.4. For the variant G57A A71G, the self-cleavage amounted to 0.112. Under A64C U67A stands 0.0615; under U58G A64C, 0.163. The result for U58G A64G reads 0.341.

In the case of A61G U63C, the self-cleavage amounted to 0.253. The result for A61G U63A reads 0.144; that for A61G U63G, 0.0586. The result for A59U U62G reads 0.262; that for A59U U62A, 0.326; that for A59U U62C, 0.185. On to G57C G68A, for which the self-cleavage worked out at 0.195. In the case of G57C G68C, the self-cleavage is 0.21. Under U60G A64U stands 0.202; under C66U U70G, 0.297; under A59U A71U, 0.252. On to A59U A71G, for which the self-cleavage turned out to be 0.156.

For the variant U63C U67A, the self-cleavage was 0.21. The result for U63C U67G reads 0.111. As to U63C U67C, the self-cleavage was determined as 0.148.

Consider C65U G69C, for which the self-cleavage was determined as 0.0941. Under C65U G69A stands 0.193; under A61G A71U, 0.393; under A61C C65U, 0.148. Under C65A G69U stands 0.235; under C65A G69C, 0.224. Consider U62C G68U, for which the self-cleavage is 0.178. The result for U63A A71U reads 0.182; that for U63A A71G, 0.221. Under U60G C65A stands 0.453; under U60G C65G, 0.442; under A61U G69A, 0.145. Take A61U G69U: the self-cleavage was 0.152.

With A61U G69C, the self-cleavage was determined as 0.283. Under U58G U63G stands 0.104; under G57C A61G, 0.0894. The result for U62A reads 0.185; that for U62C, 0.268; that for U62G, 0.179. With U60G U67C, the self-cleavage stood at 0.121. For A61C U70A, the self-cleavage stood at 0.204.

As for A61C U70G, the self-cleavage was 0.146.

In the case of U58G U67G, the self-cleavage is 0.173. Consider G57U U62C, for which the self-cleavage was found to be 0.158. A61U C65A: the self-cleavage was determined as 0.107.

Source of the values: the RNAGym collection of RNA variant scans (doi:10.7554/elife.80360).
